Holding throughout (assay): SPR, Fab over captured MICA*008.mIgG2a Ala variant; KD relative to wild type
The target of assay [1] is T1, R274A.
T1 construct: % monomer 94; also called MICA*008.mIgG2a R274A
T1 chain: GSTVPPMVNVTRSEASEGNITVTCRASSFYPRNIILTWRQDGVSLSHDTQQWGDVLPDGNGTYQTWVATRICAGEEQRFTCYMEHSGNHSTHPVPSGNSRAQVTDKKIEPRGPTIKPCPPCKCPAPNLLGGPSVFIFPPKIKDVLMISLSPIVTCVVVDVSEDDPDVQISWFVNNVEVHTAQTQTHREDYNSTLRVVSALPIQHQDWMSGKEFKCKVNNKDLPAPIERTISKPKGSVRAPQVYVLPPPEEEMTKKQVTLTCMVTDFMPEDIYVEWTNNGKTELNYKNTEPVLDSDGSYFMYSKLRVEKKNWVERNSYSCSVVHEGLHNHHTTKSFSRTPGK

Assay [2] deals with T2, R279A.
T2 construct: % monomer 95.2; also called MICA*008.mIgG2a R279A
T2 chain: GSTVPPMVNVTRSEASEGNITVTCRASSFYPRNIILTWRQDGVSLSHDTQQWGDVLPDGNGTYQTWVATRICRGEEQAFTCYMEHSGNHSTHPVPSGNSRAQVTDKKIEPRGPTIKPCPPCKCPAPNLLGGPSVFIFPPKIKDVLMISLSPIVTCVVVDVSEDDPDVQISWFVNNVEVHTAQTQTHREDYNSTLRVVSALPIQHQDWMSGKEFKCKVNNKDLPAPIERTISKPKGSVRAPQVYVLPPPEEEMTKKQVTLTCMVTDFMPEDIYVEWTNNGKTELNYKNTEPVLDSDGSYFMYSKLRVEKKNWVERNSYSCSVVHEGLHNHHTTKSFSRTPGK

Assay [3] has as its target T3, N289A.
T3 construct: % monomer 89.74; also called MICA*008.mIgG2a N289A
T3 chain: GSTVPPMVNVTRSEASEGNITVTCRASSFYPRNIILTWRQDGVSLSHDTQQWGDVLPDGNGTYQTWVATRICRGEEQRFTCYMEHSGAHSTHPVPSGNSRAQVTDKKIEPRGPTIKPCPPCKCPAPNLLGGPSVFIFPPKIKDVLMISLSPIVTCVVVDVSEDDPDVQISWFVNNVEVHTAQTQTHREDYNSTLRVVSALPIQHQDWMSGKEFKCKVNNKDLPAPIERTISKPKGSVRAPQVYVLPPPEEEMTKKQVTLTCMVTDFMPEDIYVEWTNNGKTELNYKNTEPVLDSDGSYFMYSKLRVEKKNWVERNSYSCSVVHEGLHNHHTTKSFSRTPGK

The target in assay [4] is T4, S247A.
T4 construct: % monomer 94.87; also called MICA*008.mIgG2a S247A
T4 chain: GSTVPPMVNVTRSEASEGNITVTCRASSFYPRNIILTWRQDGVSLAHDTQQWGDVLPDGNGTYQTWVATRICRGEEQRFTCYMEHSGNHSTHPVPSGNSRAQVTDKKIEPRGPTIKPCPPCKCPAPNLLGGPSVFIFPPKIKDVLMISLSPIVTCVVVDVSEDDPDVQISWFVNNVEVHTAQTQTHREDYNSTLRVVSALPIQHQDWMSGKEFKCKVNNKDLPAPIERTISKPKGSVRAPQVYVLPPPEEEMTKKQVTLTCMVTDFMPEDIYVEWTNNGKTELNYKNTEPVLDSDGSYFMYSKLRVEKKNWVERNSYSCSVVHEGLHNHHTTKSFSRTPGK

Assay [5] addresses T5, S245A.
T5 construct: % monomer 93.96; also called MICA*008.mIgG2a S245A
T5 chain: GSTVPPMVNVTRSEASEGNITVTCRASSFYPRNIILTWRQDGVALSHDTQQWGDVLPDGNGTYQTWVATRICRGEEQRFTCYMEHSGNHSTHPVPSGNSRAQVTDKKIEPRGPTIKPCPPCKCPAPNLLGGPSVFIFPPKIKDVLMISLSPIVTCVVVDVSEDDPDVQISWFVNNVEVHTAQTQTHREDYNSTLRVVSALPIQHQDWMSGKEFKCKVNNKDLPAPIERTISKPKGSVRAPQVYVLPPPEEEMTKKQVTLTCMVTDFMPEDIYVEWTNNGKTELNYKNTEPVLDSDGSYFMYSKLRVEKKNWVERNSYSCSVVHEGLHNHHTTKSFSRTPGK

For assay [6], the target named is T6, T250A.
T6 construct: % monomer 91.61; also called MICA*008.mIgG2a T250A
T6 chain: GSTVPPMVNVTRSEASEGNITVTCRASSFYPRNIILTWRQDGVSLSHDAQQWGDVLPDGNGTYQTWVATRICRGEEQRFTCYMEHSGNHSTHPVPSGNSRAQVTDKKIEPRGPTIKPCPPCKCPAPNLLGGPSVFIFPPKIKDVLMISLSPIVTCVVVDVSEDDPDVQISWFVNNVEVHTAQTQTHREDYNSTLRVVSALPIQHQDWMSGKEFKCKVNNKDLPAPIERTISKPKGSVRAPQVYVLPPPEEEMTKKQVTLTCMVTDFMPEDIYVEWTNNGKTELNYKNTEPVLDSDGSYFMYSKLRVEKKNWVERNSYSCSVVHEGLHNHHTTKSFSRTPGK

Assay [7] deals with T7, H248A.
T7 construct: % monomer 92.05; also called MICA*008.mIgG2a H248A
T7 chain: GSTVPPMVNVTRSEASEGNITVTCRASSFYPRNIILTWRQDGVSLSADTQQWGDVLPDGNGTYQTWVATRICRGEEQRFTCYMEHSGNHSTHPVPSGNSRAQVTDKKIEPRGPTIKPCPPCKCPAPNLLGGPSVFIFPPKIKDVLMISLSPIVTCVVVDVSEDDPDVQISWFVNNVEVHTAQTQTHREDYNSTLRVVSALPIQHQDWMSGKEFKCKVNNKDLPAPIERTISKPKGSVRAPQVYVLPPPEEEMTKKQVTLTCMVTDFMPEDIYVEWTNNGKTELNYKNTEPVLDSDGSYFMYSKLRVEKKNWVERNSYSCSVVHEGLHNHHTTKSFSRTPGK

B1: 6F8.7 Fab (Fab, V domains shown)
VH: DVQLQGSGPGLVKPSQSLSLTCSVTGYSITNDYYWNWIRQFPGNKLEWMGFISFGGSNNYNPSLKNRISITRDTSKNQFFLKLSSVTTEDTATYYCARYDGRGAWFAYWAQGTLVTVSA
VL: DIQMTQSPASLSASVGETVTITCRASGNIHNYLAWYQQKQGKSPQLLVYDAITLADGVPSRFSGSGSGTQYSLKINSLQPEDFGNYYCQHFWSFPLTFGAGTKVEIK
Consider B1, for which the fold-decrease in affinity in assay [1] was 1; in assay [2] it was 4.5; in assay [3], 1.2; in assay [4], 0.9; in assay [5] it was 1.2; in assay [6], 0.5. Further, the fold-decrease in affinity in assay [7] was found to be 0.6.

B2: 7D4.6 Fab (Fab, V domains shown)
VH: DVQLQESGPGLVKPSQSLSLTCTVTGYSITSDYAWNWIRQFPRNKLEWMGYINYSGTTNYNPSLKSRISITRDTSKNQFFLQLISVTTEDTATYYCSYYRYDGAWFPYWGQGTLVTVSA
VL: DIQMTQSPASLSASVGETVTITCRASGNIHNYLAWYQQKQGKSPQLLVYNAIMLADGVPSRFSASGSGTQYSLKINSLQPEDFGSYYCQHFWSFPLTFGAGTKVEIK
For B2, the fold-decrease in affinity stood at 0.9 in assay [1]; 5.1 in assay [2]; 3.5 in assay [3]; 0.8 in assay [4]; 1.6 in assay [5]; 0.6 in assay [6]. The fold-decrease in affinity in assay [7] came out at 0.6.

B3: 2E5.2.3 Fab (Fab, V domains shown)
VH: QGQMQQSGAELVKPGASVKLSCKTSGFTFSDNYISWLKQKPGQSLEWIAWIYAGTGGTSYNQKFTAKAQLTVDTSSSTAYMQFSSLTTEDSAIYYCARHDYYGTSGAWFAYWGQGTLVTVSA
VL: DVLMTQTPLSLPVSLGDQASLSCRSSQNIVHINGNTYLEWYLQKPGQSPKLLIYKVSNRFSGVPDRFSGSGSGTDFTLKISRVEAEDLGVYYCFQGSHVPWTFGGGTKVEIK
Consider B3, for which the fold-decrease in affinity was 1.1 in assay [1]; 0.8 in assay [2]; 1.1 in assay [3]; 1.1 in assay [4]; 1 in assay [5]; 1.2 in assay [6]. Moreover, the fold-decrease in affinity in assay [7] came to 1.

B4: 1D5 Fab (Fab, V domains shown)
VH: EIQLQQSGPELVKPGASVKVSCKASGYAFTSQNIYWVKQSHGKSLEWIGYIEPYNVVPMYNPKFKGKATLTVDKSSSSAYIHLNSLTSEDSAIYYCARSGSSNFDYWGQGTTLTVSS
VL: EIILTQSPTTMAASPGEKITITCSASSSISSHYLHWYQQKSGFSPKLLIYRTSNLASGVPARFSGSGSGTSYSLTIGTMEAEDVATYYCQQGSSLPLTFGAGTKVEIK
notes: Expressed in E. coli as chimera of murine variable and human constant domains; not shown: human IgG1 CH1 constant domain; human kappa CL constant domain
Regarding B4, the fold-decrease in affinity in assay [3] came out at 0.2; in assay [4] it was 0.2; in assay [6], 8.8.

Source of the values: patent publication US20200055939A1 (Genentech, published 2020).
